Measurements taken from the supplement of paper PMC12042874.
± gives the uncertainty stated by the source.

Assay: amyloid nucleation score (Sup35N fusion, yeast selection) (log enrichment); library NNK2; higher = more nucleation; inactive = no reads after selection
Method in brief: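 Yeast lacking psi expressed peptides of 20 random codons fused to Sup35N, received 100 μM copper sulfate for 24 hours, and were then grown for 7 days at 30°C on medium lacking adenine and uracil. Illumina sequencing of input and output plasmid inserts provided the reads. Nucleation scores are DiMSum log enrichments of output over input, centred on the mode of non-aggregating sequences. Any sequence with under 100 input reads was excluded.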

| Substance | amyloid nucleation score |
| --- | --- |
| ILSRTKVFYNSSCETDVMWL | 4.17 ± 0.085 |
| ILSSFMQ | -0.2 ± 0.41 |
| ILTGR | -0.16 ± 0.55 |
| ILVSFYRDSS | 0.416 ± 0.44 |
| ILVSMDRLCLWAGTSASGFS | 0.278 ± 0.55 |
| ILVWLGQTEEASVDRRAQHT | 0.43 ± 0.32 |
| ILWLTADFTLLISNYMCLS | inactive |
| ILYSDFRMYSGRFLSEMVRI | 0.247 ± 0.39 |
| IMFICTGRSLTHTD | -0.642 ± 1.1 |
| IMGKLHTADYIIVLRLIDRS | -0.349 ± 0.41 |
| IMHSLLRSGN | inactive |
| IMIFSLVTMLDVNGTIC | 7.477 ± 0.047 |
| IMLKGDWC | -0.189 ± 0.47 |
| IMRMNVMCGVRYPYALFALL | inactive |
| IMTDPRSSLSLWCLNLSVNG | 4.88 ± 0.082 |
| IMTMTGNVDNIAVIRRS | -0.519 ± 1 |
| INFSTLYDLGESFFYQCPKM | inactive |
| INQFMRDFLDHLPCAYRVYN | -0.049 ± 0.55 |
| INRPYNIVGRRSSPSHIVTF | inactive |
| INVFSYSL | 2.58 ± 0.089 |
| INVPCFRLKSSVGVISLQGT | 0.205 ± 0.26 |
| IPEVESIGMGWGWREISGEC | 1.42 ± 0.41 |
| IPIWFERIALSDFKLVFSHN | inactive |
| IPLQSTMRFRCPVMDLGNFI | -0.849 ± 1 |
| IPRCKKW | 3.22 ± 0.1 |

| Substance | amyloid nucleation score |
| --- | --- |
| IPSCRVFICRGNNVFRVPIT | -1.06 ± 1.1 |
| IPYEKPHRYIVNWECVAGSM | 0.621 ± 0.43 |
| IPYSSPS | inactive |
| IQDLRFNITVTMPLESVSFM | 7.046 ± 0.058 |
| IQGPIVEFTISIRSSSRRHW | 3.1 ± 0.083 |
| IQKLRVRHDMISYTSEMSVN | -0.218 ± 0.55 |
| IRDWHWTNVGSCNCCFFCQG | 9.244 ± 0.079 |
| IRFGLVWRLKLGFMLGLNSA | 4.98 ± 0.095 |
| IRGCLNMFWLKKWDLPRLYF | -0.327 ± 0.63 |
| IRGDNWMVCTTYTNSSFLRS | 0.215 ± 0.57 |
| IRGGHTLSYRVEDKRPTEWG | 2.04 ± 0.2 |
| IRKGSHGSKMIEPVAMRSAC | 4.88 ± 0.083 |
| IRLAYASRNWCSSFGCGRMI | -0.571 ± 0.55 |
| IRLVMWCYHQNDCVVFSSLH | 1.94 ± 0.13 |
| IRLYKGVTWIFLSGSYLLRD | -0.891 ± 1.1 |
| IRMDGYEIRFSHSLYYLSH | 2.45 ± 0.081 |
| IRQIIESWQFLYISVYAGLV | 0.186 ± 0.51 |
| IRQPSVKQPWTVAKTFH | 0.052 ± 0.5 |
| IRSGIIPVTVGPYHGALYMV | 0.662 ± 0.74 |
| IRSLFLVDYNRMIGMPKGMY | 1.55 ± 0.2 |
| IRSPDAVNSNCATPRMRVY | 0.499 ± 0.36 |
| ISACFKMGNRGYVICAMSRV | -0.306 ± 0.45 |
| ISFLSNR | 1.58 ± 0.27 |
| ISGLETYLRSYWICIWSMWA | 3.02 ± 0.15 |
| ISLAINIAPLLLCTESTEWG | -0.133 ± 0.65 |

| Substance | amyloid nucleation score |
| --- | --- |
| ISLHDRWIADPFVTACGKRY | 0.386 ± 0.19 |
| ISLHILCCRSMF | 8.618 ± 0.079 |
| ISLIFCNSTRIYKFLLMFSW | inactive |
| ISNVNLTE | -0.763 ± 0.4 |
| ISPTKSNLYMADVEFREPGT | -0.883 ± 0.49 |
| ISRRHGFIILLGNDIRRVDY | 0.554 ± 0.81 |
| ISRVSGGQTLPSGLVMG | -0.326 ± 0.45 |
| ISSMSTLFCLFRGCVGGEYI | -2.18 ± 0.64 |
| ISVGRSYSV | 0.694 ± 0.24 |
| ISVKFNEEACKFYDLCN | -0.294 ± 1 |
| ISVYLSRSIFI | -0.326 ± 1 |
| ISYHSVWDKLFFYVVDFYTS | -0.591 ± 1 |
| ITCDRYITDVIDNEA | inactive |
| ITCVVLPLSRWDVHFKCSCH | 0.096 ± 0.31 |
| ITDVFSDAACNRWQINYTQA | -0.832 ± 0.33 |
| ITFAYVSLTLHRINEMGYQL | 4.65 ± 0.049 |
| ITHQRSSACIVGFILRRRCN | -0.369 ± 0.54 |
| ITILCLNVSMVYEVGQ | 7.778 ± 0.042 |
| ITIPVNLPLHFLYSGQYHVA | -0.307 ± 0.74 |
| ITIRCGSKDSFMNIGLGKMG | 4.09 ± 0.11 |
| ITLRRLTVITENPLGWNHIT | 0.499 ± 0.36 |
| ITNAYGLIPTNFLCYAFCVI | 7.958 ± 0.038 |
| ITSSRDDVSYTVGPKDMFES | 1.17 ± 0.37 |
| IVAFARVITLMRLLADGSTV | 0.608 ± 0.54 |
| IVAGVSSGQGIDQDSIVNKR | 0.102 ± 1.1 |

| Substance | amyloid nucleation score |
| --- | --- |
| IVCIWNTDVLIGKWTHLSWS | 0.883 ± 0.27 |
| IVFYMSS | 1.53 ± 0.095 |
| IVGATYHLSWLPGYTGIYRG | 1.25 ± 0.47 |
| IVGDVHSLMILRVKSAFKFT | 2.81 ± 0.16 |
| IVGELVMTFKSVMAARTPFH | 4.19 ± 0.064 |
| IVGNGRMCLRELSRFCFVRC | 1.04 ± 0.28 |
| IVGVTYFCGSNRIIMMNGVL | 5.956 ± 0.052 |
| IVICSVFSIMTRLFRSVNGR | 8.429 ± 0.062 |
| IVLTLDLSRRVGMRNCVLLG | -0.063 ± 0.54 |
| IVLYVHTTLLAGS | 4.6 ± 0.091 |
| IVNMMIAANLACAMWSNCKQ | 9.266 ± 0.044 |
| IVQKFCVASCGLEHYVF | 6.07 ± 0.073 |
| IVRVSMGYGIIPLICSKTEG | 0.859 ± 0.74 |
| IVSAMQLEHESQCKFGMNWV | 0.082 ± 0.42 |
| IVSEIFSG | -0.369 ± 1.1 |
| IVSETKITIVC | -0.275 ± 0.48 |
| IVWGC | 0.493 ± 0.34 |
| IWCSTGTFWLGGRLITLWRW | 1.02 ± 0.28 |
| IWLDSHSSAWISWTIMI | -0.585 ± 0.41 |
| IWSYLRSSASWPMNASNTSA | 0.905 ± 0.34 |
| IWYCRK | -1.11 ± 0.44 |
| IWYLLFMVDLVKCHTMKTNR | 0.686 ± 0.12 |
| IYDLSCAKARLYVASHSLTL | 0.418 ± 0.31 |
| IYDNMVDKFVSKGRCAVSPD | -0.066 ± 0.55 |
| IYFPP | -0.689 ± 0.4 |

| Substance | amyloid nucleation score |
| --- | --- |
| IYKSRRVRHVLDVVL | -0.241 ± 0.56 |
| IYLFFSCFFAILTNLVRPFA | 3.83 ± 0.081 |
| IYLSLATCSGRRRSYSKPSR | 0.645 ± 0.47 |
| IYMDLLQNQSIR | -1.27 ± 1.1 |
| IYSFSASNW | 0.048 ± 0.79 |
| IYSGETYKTWLFHGINV | -1.4 ± 0.62 |
| IYSHESASWWMRRARSS | 1.55 ± 0.25 |
| IYTTYKRTFRS | -0.553 ± 1.1 |
| IYWSLMDWLEV | 1.22 ± 0.44 |
| KAIDLRVPSMYYRPWVV | -0.58 ± 0.76 |
| KASLGLFYTWVQLSLHISCG | -0.488 ± 1 |
| KAVSLPLVGGLC | -0.684 ± 0.34 |
| KCIYDFHHRKSSVRDSLSFH | -1.6 ± 0.75 |
| KDAPEECNYVQFKA | 0.273 ± 0.61 |
| KDHSMSELYGGICVRCYKLI | -0.378 ± 1 |
| KDLRWVLRWC | 0.912 ± 0.26 |
| KDNLDQYFTERRGWWLCEVV | -0.043 ± 0.5 |
| KDVCY | 1.31 ± 0.23 |
| KEMARTSSSRCDITLQWPAS | 0.562 ± 0.44 |
| KENDVNLD | 1.5 ± 0.44 |
| KESKLYLFLCFL | 7.832 ± 0.048 |
| KESLAFTSVGVPYVWGLYGE | 0.035 ± 0.32 |
| KFIEHWYVFGYIFLRFYKFQ | -0.623 ± 1 |
| KFLIWRNFLYSVIMAVAW | inactive |
| KFLKARFGYQST | 1.3 ± 0.13 |

| Substance | amyloid nucleation score |
| --- | --- |
| KFNFS | -0.908 ± 0.44 |
| KFSASKSDISLSSYVVIMFM | 6.186 ± 0.036 |
| KFSVSLICYVTASRYSNYRE | 0.362 ± 0.31 |
| KFVYSGGLFTMLRSC | -0.414 ± 0.61 |
| KGALCLSV | -0.148 ± 0.39 |
| KGCVVFFRFSCNCSMICAWV | -0.668 ± 0.48 |
| KGFAKILLGTSCLMSV | -0.848 ± 0.62 |
| KGGQK | -0.493 ± 0.34 |
| KGLAREVRCSQYTTVIFVDR | 5.273 ± 0.043 |
| KGMLGAASHSQIKFVCVFSW | -0.493 ± 0.32 |
| KGNEY | -0.757 ± 0.64 |
| KGPDITEHTITRGPEGNSRY | -0.17 ± 0.65 |
| KGVLSGTWGGIRRIMTHVHD | 0.004 ± 0.36 |
| KHCIIRFIKLGLGKKLKQPV | -1.02 ± 0.36 |
| KHFRREW | 1.35 ± 0.41 |
| KHIDVRSNVWTRPHSKWLWS | 0.403 ± 0.2 |
| KHIKWKDCSG | -0.091 ± 0.65 |
| KHILGQTWHSHCWFHTFEGV | 2.26 ± 0.22 |
| KIERC | -0.077 ± 0.63 |
| KIFFGNNRF | 3.4 ± 0.13 |
| KIINNSANGNIYVVNRVLTL | 8.174 ± 0.046 |
| KILGWT | 0.836 ± 0.21 |
| KINMLCFSWGSCVGGCRKVC | 7.063 ± 0.055 |
| KISVWGYRFLDRH | 0.072 ± 0.21 |
| KIVCDPGCIFMPFLCVCLLW | 6.07 ± 0.082 |

| Substance | amyloid nucleation score |
| --- | --- |
| KKAVSACPLEYSVVINISGG | 7.985 ± 0.026 |
| KLAYCYSSYSHHD | 0.316 ± 0.65 |
| KLDWSNRLCSLNFECSCQLL | 3.78 ± 0.094 |
| KLFSYPIWWSRYCRMGRHRC | 0.374 ± 0.28 |
| KLIYSSYVGSFLMELRWVCD | 1.74 ± 0.17 |
| KLKRHL | -0.3 ± 0.24 |
| KLQRTGLYCYLY | -0.912 ± 0.42 |
| KLSGC | 0.265 ± 1.1 |
| KLSYFAFFRSVDGLR | 0.508 ± 0.53 |
| KLYSQTVSANLGVGWSSS | 2.12 ± 0.15 |
| KMFVILIIHTLLGAITAVCG | 0.186 ± 0.76 |
| KMMTSSFRMDGVNSTLIWLI | -0.08 ± 1 |
| KMRDGFISLVKCEYVGGFGC | -0.856 ± 0.76 |
| KMTRLLFYWSFGCGLIHLVC | -0.464 ± 1.1 |
| KMWIRLLRSEIPKCVGLTVS | 0.66 ± 0.23 |
| KNFQEHYVFLRARRLKLLSY | -0.095 ± 0.8 |
| KNGQYDGTGDNSLLGPDGFI | 3.44 ± 0.075 |
| KNILGGDSFWFLLYGYHLFI | inactive |
| KNINWILNAGSMLVSFYRPW | 7.328 ± 0.065 |
| KNIPFRMYWS | 2.6 ± 0.075 |
| KNKSFNMACPVLVYGGFLIR | inactive |
| KNLRWCQGFSRGIECRSLMV | -0.639 ± 0.55 |
